The labels stand for the following.
T1: mouse Rpa70N (residues 1–122) (mouse, UniProt Q8VEE4 1-122)
T1 construct: Rpa70, mouse, residues 1-122 (OBN domain); also called Rpa70N polypeptide; not shown: His6-SUMO, N-terminal, cleaved
T1 sequence (looked up): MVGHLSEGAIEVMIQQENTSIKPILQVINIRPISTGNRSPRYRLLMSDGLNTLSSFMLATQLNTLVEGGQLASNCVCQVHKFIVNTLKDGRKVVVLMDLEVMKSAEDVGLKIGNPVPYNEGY

B1: GST-tagged mouse Dna2 α1 (residues 1–20) (peptide, UniProt Q6ZQJ5 1-20, looked up)
chain: MEPLDELDLLLLEEDGGAEA
notes: Dna2, mouse, residues 1-20 (α1 helix); Cloned into a pGEX-4T vector; also called GST-α1
B2: human Dna2 α1OB (residues 1–122) (domain or fragment, UniProt P51530 1-122, looked up)
chain: MEQLNELELLMEKSFWEEAELPAELFQKKVVASFPRTVLSTGMDNRYLVLAVNTVQNKEGNCEKRLVITASQSLENKELCILRNDWCSVPVEPGDIIHLEGDCTSDTWIIDKDFGYLILYPD
notes: Dna2, human, residues 1-122 (α1 helix and OB domain); source: E. coli BL21DE3, purified
B3: mouse Rpa heterotrimer (Rpa70, Rpa32, Rpa14) (complex)
chain 1: MVGHLSEGAIEVMIQQENTSIKPILQVINIRPISTGNRSPRYRLLMSDGLNTLSSFMLATQLNTLVEGGQLASNCVCQVHKFIVNTLKDGRKVVVLMDLEVMKSAEDVGLKIGNPVPYNEGYGQQQQQQQQQQQQAVPSPASAATPPASKPQPQNGSLGMGSTAAKAYGASKPFGKPAGTGLLQPSGGTQSKVVPIASLTPYQSKWTICARVTNKSQIRTWSNSRGEGKLFSLELVDESGEIRATAFNEQVDKFFPLIEVNKVYYFSKGALKIANKQFSAVKNDYEMTFNNETSVLPCEDGHHLPTVQFDFTGIGDLESKAKDALVDIIGICKSYEDSIKITVKSNNREVAKRNIYLMDMSGKVVTTTLWGEDADKFDGSRQPVMAIKGARVSDFGGRSLSVLSSSTVIVNPDIPEAYKLRGWFDSEGQALDGVSISDHRSGGAGGGNTNWKTLHEAKSENLGQGDKADYFSTVAAVVFLRKENCMYQACPTQDCNKKVIDQQNGLYRCEKCDREFPNFKYRMILSANIADFQENQWVTCFQESAEAILGQNTMYLGELKEKNEQAFEEVFQNANFRSFTFRIRVKLETYNDESRIKATVMDVKPVDFRDYGRRLIANIRKNM
chain 2: MWNSGFESFSSSTYGGAGGYTQSPGGFGSPTPSQAEKKSRVRAQHIVPCTISQLLSATLTDEVFRIGDVEISQVTIVGIIRHAEKAPTNIVYKIDDMTAPPMDVRQWVDTDDASGENAVVPPETYVKVAGHLRSFQNKKSLVAFKIIPLEDMNEFTAHILEVVNSHMMLSKPNSQASAGRPSMSNPGMSEPGNFSGNNFMPANGLTVVQNQVLNLIKACPRPEGLNFQDLRSQLQHMPVPSIKQAVDFLCNEGHIYSTVDDDHFKSTDAE
chain 3: MEDIMQLPKARVNASMLPQYIDRPVCFVGKLEKIHPTGKMFILSDGEGKNGTIELMEPLDEEISGIVEVVGKVTAKATVLCASYTLFKEDTNRFDLELYNEAVKIINELPQFFPVGLPQHE
notes: Rpa70 subunit of Replication Protein A, mouse; Rpa32 subunit of Replication Protein A, mouse; Rpa14 subunit of Replication Protein A, mouse; The GST tag on Rpa32 is called cleavable; also called heterotrimeric Rpa; full-length Rpa; source: Hi-5 insect cells co-infected with two baculoviruses, purified as described (Fan and Pavletich, 2012); copies: + +
B4: human Dna2 α1 (residues 1–20), polypeptide used in ITC (peptide, UniProt P51530 1-20, looked up)
chain: MEQLNELELLMEKSFWEEAE
notes: Dna2, human, residues 1-20 (α1 helix); also called Dna2 α1 helix; source: E. coli BL21DE3, purified
B5: GST-tagged mouse Dna2 OB (residues 21–122) (domain or fragment, UniProt Q6ZQJ5 21-122, looked up)
chain: VPRVELLRKKADALFPETVLSRGVDNRYLVLAVETSQNERGAEEKRLHVTASQDREHEVLCILRNGWSSVPVEPGDIVHLEGDCTSEPWIIDDDFGYFILYP
notes: Dna2, mouse, residues 21-122 (OB domain); Cloned into a pGEX-4T vector; also called GST-OB
B6: GST-tagged mouse Dna2 α1OB (α1 helix and OB domain, residues 1 to 122) (domain or fragment, UniProt Q6ZQJ5 1-122, looked up)
chain: MEPLDELDLLLLEEDGGAEAVPRVELLRKKADALFPETVLSRGVDNRYLVLAVETSQNERGAEEKRLHVTASQDREHEVLCILRNGWSSVPVEPGDIVHLEGDCTSEPWIIDDDFGYFILYP
notes: Dna2 nuclease-helicase, mouse, residues 1-122 (α1 helix and OB domain); full-length mouse Dna2 has residues 1 to 1062; Cloned into a pGEX-4T vector; also called GST-α1OB

Holding throughout (settings): both partners purified
Assay [1] addresses T1, mouse Rpa70N (residues 1–122). Kind of assay: pull-down; GST-tagged mouse Dna2 fragment or GST (30 μM in Figure 4A) with an equal molar amount of Rpa or Rpa fragment; 20 mM Tris-HCl, 80 mM NaCl, 0.3 mM TCEP, 2% glycerol, pH 8.0, 4°C, 30 min, then glutathione beads; eluted with 20 mM glutathione, SDS-PAGE.
The target in assay [2] is T2, human Rpa70NAB (residues 1–422) (human, UniProt P27694 1-422).
T2 construct: Rpa70, human, residues 1-422 (OBN, DBD-A, DBD-B); source: E. coli BL21DE3, purified
Briefly: ITC; MicroCal ITC200, 20°C, 20 mM HEPES, 80 mM NaCl, 0.2 mM TCEP, pH 7.5; human polypeptides. On the technique in general: ITC needs no label: the signal is the heat of the interaction.

Assay [3] has as its target B6. Briefly: pull-down; GST pull-down as a1 with (dT)24 or (dT)8 ssDNA added; concentrations shown in the figure; bound Rpa70 quantified relative to the lane without DNA.
Assay [4] addresses T3, human Rpa70N (OBN domain of Rpa70, residues 1–120) (human, UniProt P27694 1-120).
T3 construct: Rpa70, human, residues 1-120 (OBN domain); Used in ITC and in the co-crystals; also called Rpa70 OBN; RPA70 OBN; source: E. coli BL21DE3, purified
Kind of assay: ITC; MicroCal ITC200, 20°C, 20 mM HEPES, 80 mM NaCl, 0.2 mM TCEP, pH 7.5; human polypeptides.

The target in assay [5] is T4, mouse Rpa70AB (residues 191–431) (mouse, UniProt Q8VEE4 191-431).
T4 construct: Rpa70, mouse, residues 191-431 (DBD-A and DBD-B); also called Rpa70AB polypeptide; not shown: His6-SUMO, N-terminal, cleaved
Briefly: pull-down; GST-tagged mouse Dna2 fragment or GST (30 μM in Figure 4A) with an equal molar amount of Rpa or Rpa fragment; 20 mM Tris-HCl, 80 mM NaCl, 0.3 mM TCEP, 2% glycerol, pH 8.0, 4°C, 30 min, then glutathione beads; eluted with 20 mM glutathione, SDS-PAGE.

Assay [6] addresses B3. The assay is described as above.
For assay [7], the target named is T5, mouse Rpa70NAB (Rpa70 fragment with the OBN, DBD-A and DBD-B domains, residues 1 to 431) (mouse, UniProt Q8VEE4 1-431).
T5 construct: Rpa70, mouse, residues 1-431 (OBN, DBD-A, DBD-B); not shown: His6-SUMO, N-terminal, cleaved
The assay is described as above.

The source of these data is article PMC4716839 (eLife, 2015).

T2 sequence (P27694 1-422): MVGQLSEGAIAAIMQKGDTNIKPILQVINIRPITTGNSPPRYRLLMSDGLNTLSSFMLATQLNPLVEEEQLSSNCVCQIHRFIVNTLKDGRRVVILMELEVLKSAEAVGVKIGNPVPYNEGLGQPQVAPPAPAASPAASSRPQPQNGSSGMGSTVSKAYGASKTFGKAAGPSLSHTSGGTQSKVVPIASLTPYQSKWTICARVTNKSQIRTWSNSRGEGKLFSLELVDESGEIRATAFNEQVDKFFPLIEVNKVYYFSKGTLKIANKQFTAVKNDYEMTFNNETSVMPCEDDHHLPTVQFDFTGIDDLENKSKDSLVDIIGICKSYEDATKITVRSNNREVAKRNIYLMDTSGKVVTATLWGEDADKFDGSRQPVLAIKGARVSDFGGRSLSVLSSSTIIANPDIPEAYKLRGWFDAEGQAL
T3 sequence (P27694 1-120): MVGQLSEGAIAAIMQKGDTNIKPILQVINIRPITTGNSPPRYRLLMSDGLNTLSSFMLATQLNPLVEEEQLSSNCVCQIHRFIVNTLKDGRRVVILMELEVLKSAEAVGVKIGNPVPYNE

With B1, the binding result in assay [1] is recorded as “binds”.
In assay [2], B2 displayed a Kd of 12 ± 1 µM.
Consider B3, for which, in assay [3], the “fold reduction of bound Rpa by one molar equivalent of (dT)24 ssDNA” value is around 4 fold.
In assay [4], B4 yielded a dissociation constant (Kd) of 34 ± 7 µM.
Regarding B5, the binding result in assay [5] is listed as “binds”.
As for B6, the binding result in assay [6] and in assay [7] was “binds” in each case.

In general, Kd refers to the free concentration of one partner at which half of the binding sites on the other are occupied at equilibrium, for simple one-to-one binding.
